Data published in the domain aggregation screens of Martell et al. (2025).

Assay: soluble fraction after stress (log2 fold change); higher = more stays soluble; pooled small domains, quantitative proteomics
Settings: stress: pH 4
Method in brief: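 Following acid stress at pH 4, the amount of each small protein domain still soluble was measured in pooled custom libraries by high-throughput quantitative proteomics. Its fold change, on a log2 scale, is higher when more of the domain stayed soluble. This fold change is taken as a measure of aggregation propensity.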

Sequence | soluble fraction (log2)
HMVMATPHNTAKAGDIAKTVIMPGDPLRAKYIADNYLDNAVQFNVVRNIYGYTGVYRGTDISVMASGM | 0.0409
HMVMETLAERINTALQTKGLSVNALARRVGVSYPAMRKITKGETLNPKFLFEIAEALGVSVEWLKTGEGSP | 0.0978
HMVMNKQEFLKILRDTLQSQLSSRETENHVEYYRTYIEEQMREGKTEIEILDVLGDPRLIARTILET | -0.253
HMVMSTDAELILEYLAKHQGEMEITDKSSPELIMDTFNMSKGAFKRALGSLYKSKTVVIESTKVLLNT | -0.0971
HMVNDQSIYASEGYVHIRSGKPVSLRIYTILGALYRHEERLVGDHVIALPRGLYIVVLNHTAKKIMV | 0.021
HMVNEALDEFFVGLKNLYESATGKPAIAGAHFDGEPKTDFEKLMYLGYQIIRPAQAYPSALKAYERAIARS | -1.15
HMVNHEERKRLIAEATWRTISHVGIEQASVRTIAKEAGLSLGALRYYFTTQEELLRFSMQLVQERV | 0.0598
HMVNIEAEVGRRLRQLRARRGLSLRALADLSGLNVNTLSLIENSKTSPSVSTLQQLARSLQVPITTFFESD | 0.142
HMVNKQERTYTILRDRIHSGSFAPLERLNIDALARELGVSPIPVREALRRLEAEGWVRFTPNVGAVVSP | 0.308
HMVNLLVTPLEELEINFRTLRALRKYNIYQLEDLLRFIKYNGFDALRIVPGMGIKSTEQLYEKLKDKNI | -1.06
HMVNTVEVQGNTIYSAEEIRSASGIQKGDNLFTLNKEAAAGSIKASLPYVETVSIIRFLPDKIVIEVKE | -0.977
HMVNVLKNSTVIDLVKNNLSDALIISLIRRAKVDFSLMTDDVIELSGKGVSPAVIMEMRQAMIRQASEIQN | -0.183
HMVNVTEAIDLENGTGKLSGTFNHEPKSAEEIIFLLKIDTNKWKLSQYWNKQMGDHWRVSALISQI | -1.54
HMVPAMEVALEDARRAIEQVVSGERTSVQLSSQEAMIRKLQHQMAKDANLFSRSSGVEPQRRVTIYTN | -0.478
HMVPHQPRVWTNTAGKTITAAFVRFNAAGRKVSLKLEKGRQVELPLASLSGNDVDWIKEHVPEAMSNQE | -0.00313
HMVPISGADFEKLSDYILQKAGAGSIQVKELLAGLKGMHEKNLWKAIDYLLAEEKIRIDKGGNISVK | -0.249
HMVPQAVQDIKAYLASGALPYIGPATAKKIVAMFGSDALDVIAEHPEQLTAIRGLNEEKANAIHQEFRRQF | 0.0364
HMVPSSHNIAQKVKQIKINDLWLDVRERYIYLKNLYLSHPLEKDHPSFIVYVEAVNQIYNQYF | 0.0743
HMVQDDLRELEGISTELLAKLADAGITNRDDLADLAIDELVAITGQSEDDAKALIMKAREHWFAGDA | -1.09
HMVQIIQLQGTDKRLYELVAPLVMNPEILKQNYNYPFRTSEDFVWFVAVDKKKVIGFIPVEEKKKEYVI | -0.275
HMVRKGEINFDQLSVRARNALRNMNILFEKEILKLTEYDLKSIPNLGVKTTNELLSYIKRLQTNQKEE | -0.653
HMVRRSERLHALTESLRRSGNRGRTAEQLATEFEVSVRTIKRDLVALEASGLPLWSRPGPGGGYGLLS | -0.0236
HMVRTIKILGIKHNINLYYKNVKVPTMNVKNQTLEIILPNKYKKFQEEQILKVLTQKLYDKIAETEIEKIK | ≥ 0.43

Sequence | soluble fraction (log2)
HMVSAEQNTLEFIKENVKEDVIEDDIEFYKSLLEDWSVEVDNSSKLLDPGNNNSLLAVIAYSIENEL | -0.414
HMVSDAWITGKVKSQLLADDVTPGMKIDVDTEDRIVSLKGTVPSLTARNEAIRIASHTKGVRTVDADELIV | -0.0247
HMVSFAEQASDWLAHFDRLGDVGPDTTLTDLTARDAEFSAWVNEGIHHRVAFLETLAAWHRTER | -0.0379
HMVSGLEILKIQVQDHPSDWRWALLLARTHYENGNREAAVRTLRPLQRLHPDRLEVMTLWALLA | -0.222
HMVSGSPTVDILMQRGLEYQQQENLEAARDAFDRAINLKPDYAEAWNRRAVLFFNEGKYDEAIADLETAIT | -0.0941
HMVSKEELANSIYENKTADELGNIVLRKGKYSGEMLRTIYVKDIGYLEWHSKQSYEYSNAVKWYLKKLE | -0.846
HMVSLEEIINDLTSRIQTAVKMRFSDFVQNRKERVGVIVSFLGMLELVKQGIIDIKQEGHFADIEMETA | -0.58
HMVSLSENQKIVLESLNTAMSARELMEILNLSDISHFRRNILNPLLLEGLIVRTKPDKPKSSKQKYIKANF | -0.354
HMVSPEVEMLRAAVETMSERQKQVYELHYLRGFNVKETAAILGMSSPTVTAHKKRIMEIIKKFFE | -0.88
HMVSPFQQQIADKVHNEIIAAKFNYDNATNENERLLAQLQAKKARELANQYGLDMSSYGADTTAERS | 0.00762
HMVSSAEQQARDKESGMILVQEAGGPDKARALVEKMRQDIRNPALDGTRRQMLRGHVARIELALAELETG | -0.0115
HMVSVGDIFAGRIISNENGHLLLQLLDGSKISAQTVTDLKYNIGDVLNLEIIEEKQGLIFVRQT | -0.471
HMVSVLGRRIKELRLQNSMTQMQLAKKLGYKGNSLVAGWELGKNYPSVSSIKRLSEIFDTDLMKYVG | 0.22
HMVTDTGAIEKVIDEVIAANPKQVQEIADQRAAGHEKPKTLGWLVGQIMKASGGKVNPAAVNEILLKKLG | 0.00199
HMVTFDEISQSLVRDVAARRSLSVQTLHAMVDRYNAGSSINAVANQYGIDRLKLREILIELGVHVAT | -0.44
HMVTLQEVKQYLRIDFEEEDPLLLSLLATAKQQVMNVGRMDEAQLSEHEDTARTAILYAVSYLYENRN | -1.63
HMVTPAQQARDTLLGALVGLARATTSEPKTDDTDVVLNAGLRLAAQPDAPEERLQRMLAIVQTEKHRV | 0.215
HMVTVNAFGKSGPEPAAMTKEALAKGADEVRVIVDSPTAAASVRDFLIGAGLRVQLQDDEGQLIVVGEKK | 0.344
HMVVDEQRIQTLVSAAEQNSSDPVPRVTLGNLYFDAEQFEEAVKWYEQALALDPRNVNVSTDLGVGYYY | -0.451
HMVVKLTQEQDRFIKTFNDKSLAFYYISSWGWGSFLRNGIGGVYEGDKTPFTLDEKEKMLNAIINGYEVI | -1.36
HMVVKSPLEMAFDKFREMRKKIRKPMTERAEELIWKELSKLAGEDSDLKIEILEQSIRNGWQDVYAVK | -0.064
HMVVLPGEVVALKIIQTGSSKDQGVGYLEDGTMVVVDGAKNSIGKTIEIQISRSHQTVAGRMLFGIAMS | -0.0841
HMVVQTELVRISITSLSGEDIRRLVQIKVVGATIEPFEGGGFLITGTAEQIAKAKDFLNSMSTEF | -1.29

Sequence | soluble fraction (log2)
HMVVRKHDRYYTPEHRKLLMDTYERTNKYPTKQDMSELAKIIGVLPIKILWWYTHRRRQDRRKGEESSSP | -2.23
HMVVTMEKIVVNDGGIRIDTYLADKLNISRSKVAKMLENNILVNNVKVKPSYKVTNNDIIEVEEYV | 0.402
HMVVVLPGETIKIDLIREGKDKQALGYLEDGTMIVVDNAKHLIGKNVEIEIDNVLPKEAGRVIFASLHGA | -0.942
HMVVVMNADAEADEIKRVKWNLEQMLFRTQVIYGVKRIVIGAIGDQREVDLSEIEQMPKVDKIVRISK | -1.39
HMVVVPDVKGLKIEEAAEFFKNNNLHYNVIDSVFSKDVEPGAIVELSPLAGSKVKEGRIVFITVNALTS | -0.681
HMVVVVELTENEKAVQDVLTKNEGSLEISDLKTKLELSGKQWDKALKGLAKHGITQVAKVDGVVTVSL | -1.4
HMVWMIEKDQSVILVNKLERIQVEALGKALENGNFGDRIRVINNKSGQKLLGIVESEKKIQIISKI | -0.077
HMVYLPGEEIPLKIIQEGKESGQGVGYLEDGTMVVVENGRRYLNQEVLVQVTKILQTNAGRLIFAVP | 0.11
HMVYLPSSIKNIPTKYGEMMVANFKMDELQANSKNGWVSMVISERREPSEKGATHYAYVNTY | 0.106
HMVYNQYILTQSVRLREEPGISGRVIRLLETGTTVELVDTVVVNKDDYDWVWVKLSDGAVGWIIKSAIDI | -1.03
HMWDEMKDQKLVEALLLLREDERKLIYQHVFEERTFDDISRINGLPPYKVKGIYYYAIRKIRKWMG | -0.425
HMWGQDVLFTIDKKEFKGKLLEQSDKHTTFLPDGQKTPQKIPNRLIKEIHLGSNKIIDFGNDFLI | 0.0314
HMWPDDAIALPTRDGQDVGGAQERTMLAFASGAAGIRTVEEINPDGSITRLRTRYGWPTFETEGARTAAAE | -0.221
HMWTIDPLDWKTENADQIVEKVMSEAKENAIILLHDRYEASVEAALRIVDLLKEQGYTFVTADKLV | -0.421
HMWTKKELWNAIAKLPKKQRTVVMMRIAQNLPYKDISEITGMSIGSAKVNYHHAVNSLKQWLS | 0.22
HMWTPLVVAVLIGGTHRFGELRAAVGGITPKVLTETLRSMERDGLVVREQTPGVPPRVDYALTPLGA | -0.191
HMYAGTWISESGQWKYRNDDGSFAKGWFQDLDSRWYYFDANGHMLSDTLTPDGYRLGEDGAWVND | -1.42
HMYDESVFTGEYHYYYEKLSDDDKLIYRQIYAMMQKRMDGISLNTTDTDNVSRIQQFVLLDNPQF | -2.43
HMYDKKVFRLLFILNQLDSRKKVSTGELAKEFNVSPRTVQRDIVLLNTTGFPIISLEKGYHSFMEGFSLK | -0.7
HMYDPVNEIGRVLKKIRQERSLTLDNVAEITGVSKTMLGQIERGVSVPTISVLWKIAKGLQVSLSTLLNE | 0.36
HMYEGLPVTLIIDGRVIEANLAKANRDMAWLERELANSGVRSHHDVFFATLDSRGQLYYQVKN | -1.35
HMYELDIYPNPAIDKINVLLPSSTTLPVKVEIYDIMGKKVNSLLTTKKAFTIETDQFEKGIYFVKA | 0.187
